Source: patent US20090060920A1 (Eli Lilly, published 2009)

B1: 4-28 (cys) ghrelin fragment (peptide)
peptide: FLSPEHQRVQQRKESKKPPAKLQPRC
B2: Fab 5611 (Fab, V domains shown)
VH: QVQLQQSEAELVRPGSSVKISCKASGYAFSNYWMNWVKQRPGQGLEWIGQIYPGDGDTKYNGKFKGKATLTADKSSSSAYMQLSSLTSEDSAVYFCVITTVVGGDSDVWGAGTTVTVSS
VL: DLVLTQSPASLAVSLGQRATISCRASKSVSTSGYSYMHWYQQKPGQPPKLLIYLASNLESGVPARFSGSGSGTDFTLNIHPVEEEDAATYYCQHSRELPYTFGGGTKLEIKR
notes: Murine Fab from an Omniclonal library of immunised C57Bl6 mice
B3: E8 mouse IgG1 monoclonal antibody (antibody, V domains shown)
VH: B2 VH
VL: B2 VL
notes: domain: constant domain of mouse IgG1; also called E8 antibody; E8 mouse IgG1 mAb
B4: 9-28 ghrelin fragment (peptide)
peptide: HQRVQQRKESKKPPAKLQPR

Columns and labels:
[1] = molecular target: B2; test: competition ELISA: peptide preincubated with 10 nM Fab 5611, mixture added to a plate coated with desacyl ghrelin, bound Fab detected with anti-mouse kappa-HRP, A490
Description: (§1) (450-655061) by adding 60 uL of a 0.4 μg/ml (in H₂O) solution to each well. The assay plate is placed in a dry 37° C. incubator overnight. The next day, the assay plate is washed (wash buffer: 0.1% Tween 20, Tris-buffered saline (TBS)), and blocked with casein/PBS (Pierce 37528).
(§2) “2-28 acyl ghrelin” and “3-28 acyl ghrelin” in FIG. 1 refer to acyl ghrelins (SEQ ID NO: 17) missing the first one or two amino acids at the N-terminal end of the molecule, respectively. In FIG. 2, “1-8 (cys) desacyl” refers to a desacyl ghrelin fragment consisting of amino acids 1-8 of SEQ ID NO: 17, with an additional cysteine residue at the C-terminus. “4-28 (cys)” refers to a ghrelin fragment consisting of amino acids 4-28, also with an additional cysteine residue at the C-terminus. “9-28” refers to a ghrelin fragment consisting of amino acids 9-28 of SEQ ID NO: 17. Dilutions of the ghrelin, ghrelin analogs, and Fab are made in casein/PBS. These mixtures are incubated in a separate plate for 1 hour at room temperature.
(§3) The blocking solution is removed from the assay plate and 50 uL of the ghrelin/Fab mixture are added to the assay plate in duplicate. This is allowed to sit for 30 minutes at room temperature. […] The reaction is stopped with 100 uL of 1 N HCl, and the absorbance of the wells is read at 490 nm (Molecular Device SpectraMax250).

[2] = molecular target: T1, desacyl human ghrelin (human); test: SPR (BIAcore 2000), Fab captured by goat anti-mouse kappa, ghrelin in solution, 25 C
T1 construct: also called desacyl ghrelin; 1-28 desacyl ghrelin
Description: (§4) Except where noted, all reagents and materials are purchased from BIAcore® AB (Upsala, Sweden). All measurements are performed at 25° C. Samples containing rat or human desacyl ghrelin are dissolved in HBS-EP buffer (150 mM sodium chloride, 3 mM EDTA, 0.005% (w/v) surfactant P-20, and 10 mM HEPES, pH 7.4). A capture antibody, goat anti-mouse Kappa (Southern Biotechnology, Inc), is immobilized onto flow cells using amine-coupling chemistry. Flow cells (1-4) are activated for 7 minutes with a 1:1 mixture of 0.1 M N-hydroxysuccinimide and 0.1 M 3-(N,N-dimethylamino)propyl-N-ethylcarbodiimide at a flow rate of 10 μl/min. Goat anti-mouse Kappa (30 μg/mL in 10 mM sodium acetate, pH 4.5) is manually injected over all 4 flow cells at a flow rate of 10 μL/min. The surface density is monitored and additional goat anti-mouse Kappa is injected if needed to individual cells until all flow cells reach a surface density of 4500-5000 response units (RU). Surfaces are blocked with a 7 minute injection of 1 M ethanolamine-HCl, pH 8.5 (10 μL/min). […]
(§5) Collection of kinetic binding data is performed at maximum flow rate (100 μL/min) and a low surface density to minimize mass transport effects. […] Signal is monitored as flow cell 2 minus flow cell 1, flow cell 3 minus flow cell 1 and flow cell 4 minus flow cell 1. […]

[3] = molecular target: B4; test: competition ELISA on coated desacyl ghrelin, Fab at 10 nM
Description: as §1, §2, §3

[4] = molecular target: B1; test: as above
Description: as §1, §2, §3

[5] = molecular target: T1, desacyl human ghrelin; test: SPR (BIAcore 2000), antibody captured by goat anti-mouse kappa, ghrelin in solution, 25 C
Description: as §4, §5

Binder: B1
binding result [1]: no binding (tested: 1000 nM)

Binder: B2
Kd [2]: 0.138 nM | binding result [3]: no binding (tested: at the concentrations tested) | binding result [4]: no binding (tested: at the concentrations tested)

Binder: B3
Kd [5]: 0.226 nM

Binder: B4
binding result [1]: no binding (tested: 1000 nM)
